According to PMC5388414 (Nucleic Acids Research, 2016):
Like-named read-outs stand apart in the source and are kept apart here.

Tests used:
Prp43 [1] = biological target: Prp43 (Saccharomyces cerevisiae, UniProt P53131, F357A); experiment: ITC; assay type: binding
Prp43 [2] = biological target: T1, Prp43 (Saccharomyces cerevisiae, UniProt P53131); experiment: ITC; assay type: binding
Prp43 [3] = biological target: T1, Prp43; experiment: ITC; assay type: binding; remark: listed apart in the source
Prp43 [4] = biological target: T2, Prp43 (UniProt P53131 1-767); experiment: filter binding
Prp43 F357A [5] = biological target: T3, Prp43 F357A (UniProt P53131 1-767, F357A); experiment: filter binding
Prp43 R159A [6] = biological target: T4, Prp43 R159A (UniProt P53131 1-767, R159A); experiment: filter binding
Prp43 R159A [7] = biological target: T4, Prp43 R159A; experiment: filter binding; remark: listed apart in the source
Prp43 [8] = biological target: T2, Prp43; experiment: filter binding; remark: listed apart in the source
Prp43 F357A [9] = biological target: T3, Prp43 F357A; experiment: filter binding; remark: listed apart in the source
Prp43 R159A [10] = biological target: T4, Prp43 R159A; experiment: filter binding; remark: listed apart in the source
Prp43 F357A [11] = biological target: T3, Prp43 F357A; experiment: filter binding; remark: listed apart in the source
Prp43 R159A [12] = biological target: T4, Prp43 R159A; experiment: filter binding; remark: listed apart in the source

Q: Which Kd (Prp43 [1]) does the source give for `Nc1ncnc2c1ncn2[C@@H]1O[C@H](COP(=O)(O)OP(=O)(O)O)[C@@H](O)[C@H]1O` [ADP] here?
A: > 45000 nM

Q: What about the Kd (Prp43 [2]) of the same molecule?
A: 1450 nM

Q: `Nc1ccn([C@@H]2O[C@H](COP(=O)(O)OP(=O)(O)O)[C@@H](O)[C@H]2O)c(=O)n1` [CDP] was tested. Which Kd (Prp43 [3]) did it give?
A: > 25000 nM

Q: For GACGGGCUGUUGGUGAUGGAC (ssRNA) [21-mer ssRNA], which Kd (Prp43 [4]) is on record?
A: 8 ± 3 nM

Q: And the Kd (Prp43 F357A [5])?
A: 6 ± 1 nM

Q: And the Kd (Prp43 R159A [6])?
A: 3 ± 0.8 nM

Q: And the Kd (Prp43 R159A [7])?
A: 18 ± 2 nM

Q: And the Kd (Prp43 [8])?
A: 42 ± 17 nM

Q: And the Kd (Prp43 F357A [9])?
A: 14 ± 1 nM

Q: What about the Kd (Prp43 R159A [10]) of the same molecule?
A: 20 ± 4 nM

Q: And the Kd (Prp43 F357A [11])?
A: 43 ± 3 nM

Q: And the Kd (Prp43 R159A [12])?
A: 8 ± 1 nM
